Experimental findings from article PMC11660155 are described below.

The target in assay [1] is scCSGal-1–6H M120L R141AzK-ss-bio (human). Kind of assay: BLI; Octet RED96e; streptavidin tips loaded with 60 ug/mL biotinylated scCSGal-1 protein; vWF at 25 ug/mL as analyte; association 600 s, dissociation 150 s; PBS with 0.05% Tween 20 and 0.1% BSA, pH 7.4; 25 °C, 1000 rpm; read-out Rt = response at 600 s.
For assay [2], the target named is scCSGal-1–6H M120L Q142AzK-ss-bio (human). The assay is described as above.

As to “von Willebrand factor (from UniProt P04275 764-2813) (natural protein)”, the Rt (specific BLI response at 600 s) in assay [1] turned out to be 0.32 nm; in assay [2], 0.14 nm.
